From PMC8766921 (Molecular biotechnology, 2021)

Biological target: the molecule itself
Test: SDS-PAGE under reducing and non-reducing conditions

B1: BMP-4 growth factor (GF) from the B2/4 construct (BMP-2 pro-domain and BMP-4 GF sequence) (ligand, human, UniProt P12644 293-408, looked up)
chain: SPKHHSQRARKKNKNCRRHSLYVDFSDVGWNDWIVAPPGYQAFYCHGDCPFPLADHLNSTNHAIVQTLVNSVNSSIPKACCVPTELSAISMLYLDEYDKVVLKNYQEMVVEGCGCR
modifications: two N-linked glycans
  stoichiometry N: 2
